Data from the RNAGym collection of RNA variant scans (doi:10.1021/acssynbio.7b00057).

B1: Pistol ribozyme (parent)
chain: GGGUCGUUGUUCCAUAAUCGCGUGGAUAUGGCACGCAAGUUUCUACCGGGCACCGUAAAUGUCCGACUGGAGCCGUUCGGGCGGCUAUAAACAGACCUCAGGCCCGAAGCGUGGCGGCACCUGCCGCCGGUGGUAAAAAAGAUCGGAAGAGCACACGUCU

Variants of: B1
Assay: aptazyme ON/OFF ratio, guanine; higher = stronger switching; co-transcriptional cleavage with and without guanine

Variant	aptazyme ON/OFF ratio
U7G U8A G9C U10A U11C C12U C13A	1.03
U7G U8A G9C U10A U11C C12U C13U	1.04
U7G U8A G9C U10A U11C C12U C13G	1.06
U7G U8A G9A U10G U11G C12G C13U	1.26
U7G U8A G9A U10G U11G C12G C13A	1.27
U7G U8A G9A U10G U11G C12G C13G	1.16
U7G U8A G9A U10C U11A C12A C13G	1.07
U7G U8A G9A U10C U11A C12A C13A	1.2
U7G U8A G9A U10C U11A C12A C13U	1.13
U7G U8A G9A U10C U11A C13G	1.07
U7G U8A G9A U10C U11A C13A	1.08
U7G U8A G9A U10C U11A C13U	1.12
U7G U8A G9A U10G U11A C12A	1.12
U7G U8A G9A U10G U11A C12U	0.997
U7G U8A G9A U10G U11A C12G	1.11
U7G U8A G9A U11C C12G C13U	1.1
U7G U8A G9A U11C C12G C13A	1.08
U7G U8A G9A U11C C12G C13G	1.04
U7G U8A G9A U10C U11G C12G C13A	1.2
U7G U8A G9A U10C U11G C12G C13G	1.19
U7G U8A G9A U10C U11G C12G C13U	1.08
U7G U8A G9C U10C C12G	1.07
U7G U8A G9C U10C C12U	1.06
U7G U8A G9C U10C C12A	1.02

Variant	aptazyme ON/OFF ratio
U7G U8A G9C U10A U11A C12U	1.03
U7G U8A G9C U10A U11A C12G	1.03
U7G U8A G9C U10A U11A C12A	1.03
U7G U8A G9C U10A C12G	1.01
U7G U8A G9C U10A C12U	1.03
U7G U8A G9C U10A C12A	1.03
U7G U8A G9A U10C C12A C13U	1.08
U7G U8A G9A U10C C12A C13G	1.06
U7G U8A G9A U10C C12A C13A	1.07
U7G U8A G9A U10G C13U	1.35
U7G U8A G9A U10G C13A	1.08
U7G U8A G9A U10G C13G	1.2
U7G U8A G9A U11G C12U C13G	1.2
U7G U8A G9A U11G C12U C13U	1.45
U7G U8A G9A U11G C12U C13A	1.22
U7G U8A G9C U10C U11C C13A	1.03
U7G U8A G9C U10C U11C C13G	1.01
U7G U8A G9C U10C U11C C13U	1.03
U7G U8A G9C U10A U11C C12G C13A	1.04
U7G U8A G9C U10A U11C C12G C13U	1.04
U7G U8A G9C U10A U11C C12G C13G	1.04
U7G U8A G9A U10G U11C C12U C13A	1.1
U7G U8A G9A U10G U11C C12U C13U	1.1
U7G U8A G9A U10G U11C C12U C13G	1.12

Variant	aptazyme ON/OFF ratio
U7G U8A G9A U10C U11A C12U C13A	1.09
U7G U8A G9A U10C U11A C12U C13U	1.05
U7G U8A G9A U10C U11A C12U C13G	1.03
U7G U8A G9C U10A U11G C12A	1.02
U7G U8A G9C U10A U11G C12G	1.03
U7G U8A G9C U10A U11G C12U	1.03
U7G U8A G9C U10C U11A C12A C13A	1.01
U7G U8A G9C U10C U11A C12A C13U	1.03
U7G U8A G9C U10C U11A C12A C13G	1.02
U7G U8A G9C U10A U11G C13U	1.02
U7G U8A G9C U10A U11G C13A	1.02
U7G U8A G9C U10A U11G C13G	1.05
U7G U8A G9A U11A C12U C13G	1.04
U7G U8A G9A U11A C12U C13A	1.17
U7G U8A G9A U11A C12U C13U	1.06
U7G U8A G9C U10A C12A C13U	1.06
U7G U8A G9C U10A C12A C13G	1.01
U7G U8A G9C U10A C12A C13A	1.05
U7G U8A G9C U10C U11A C12G C13G	1.05
U7G U8A G9C U10C U11A C12G C13A	1.03
U7G U8A G9C U10C U11A C12G C13U	1.09
U7G U8A G9A U10C U11G C12U C13A	1.1
U7G U8A G9A U10C U11G C12U C13U	1.12
U7G U8A G9A U10C U11G C12U C13G	1.14

Variant	aptazyme ON/OFF ratio
U7G U8A G9C C12G C13A	1.02
U7G U8A G9C C12G C13U	1.06
U7G U8A G9C C12G C13G	1.04
U7G U8A G9A U10C U11C C13G	1.02
U7G U8A G9A U10C U11C C13A	1.04
U7G U8A G9A U10C U11C C13U	1.03
U7G U8A G9C U10A C12G C13G	1.06
U7G U8A G9C U10A C12G C13U	1.03
U7G U8A G9C U10A C12G C13A	1.04
U7G U8A G9C U10C U11A	0.986
U7G U8A G9C U10C U11G	1.05
U7G U8A G9C U10C U11C	1.01
U7G U8A G9A U10C U11A C12U	1.08
U7G U8A G9A U10C U11A C12A	1.12
U7G U8A G9A U10C U11A C12G	1.15
U7G U8A G9A U11G C12G C13A	1.14
U7G U8A G9A U11G C12G C13G	1.14
U7G U8A G9A U11G C12G C13U	1.1
U7G U8A G9A U10C U11C C12G	1.09
U7G U8A G9A U10C U11C C12A	1.11
U7G U8A G9A U10C U11C C12U	1.06
U7G U8A G9A U11G C13G	1.03
U7G U8A G9A U11G C13A	1.13
U7G U8A G9A U11G C13U	1.21

Variant	aptazyme ON/OFF ratio
U7G U8A G9A U10A U11G C12A	1.06
U7G U8A G9A U10A U11G C12U	1.65
U7G U8A G9A U10A U11G C12G	1.2
U7G U8A G9A U11A C13G	1.02
U7G U8A G9A U11A C13A	1.06
U7G U8A G9A U11A C13U	1.12
U7G U8A G9A U10G C12G C13A	1.1
U7G U8A G9A U10G C12G C13G	1.09
U7G U8A G9A U10G C12G C13U	1.23
U7G U8A G9A U10G U11A C12G C13U	1.14
U7G U8A G9A U10G U11A C12G C13A	1.04
U7G U8A G9A U10G U11A C12G C13G	1.29
U7G U8A G9A U10G U11C C12A C13U	1.14
U7G U8A G9A U10G U11C C12A C13G	1.09
U7G U8A G9A U10G U11C C12A C13A	1.1
U7G U8A G9A U10G U11G C13U	1.26
U7G U8A G9A U10G U11G C13G	1.34
U7G U8A G9A U10G U11G C13A	1.29
U7G U8A G9A U11C C13G	1.06
U7G U8A G9A U11C C13U	1.06
U7G U8A G9A U11C C13A	1.07
U7G U8A G9A U10C U11G	1.24
U7G U8A G9A U10C U11A	1.4
U7G U8A G9A U10C U11C	1.06

Variant	aptazyme ON/OFF ratio
U7G U8A G9C U10C U11A C13G	1.06
U7G U8A G9C U10C U11A C13A	1.1
U7G U8A G9C U10C U11A C13U	1.1
U7G U8A G9C U10A U11G C12U C13U	1.04
U7G U8A G9C U10A U11G C12U C13A	1.02
U7G U8A G9C U10A U11G C12U C13G	1.01
U7G U8A G9A U11G C12A C13U	1.23
U7G U8A G9A U11G C12A C13A	1.05
U7G U8A G9A U11G C12A C13G	1.13
U7G U8A G9A U11C C12U C13U	1.17
U7G U8A G9A U11C C12U C13A	1.23
U7G U8A G9A U11C C12U C13G	1.29
U7G U8A G9A U11A C12A	1.27
U7G U8A G9A U11A C12G	1.24
U7G U8A G9A U11A C12U	1.25
U7G U8A G9C U10A C13G	1.01
U7G U8A G9C U10A C13U	1.02
U7G U8A G9C U10A C13A	1.03
U7G U8A G9A U11A C12G C13G	1.09
U7G U8A G9A U11A C12G C13A	1.17
U7G U8A G9A U11A C12G C13U	1.14
U7G U8A G9C U10A U11G C12G C13G	1.03
U7G U8A G9C U10A U11G C12G C13A	1.05
U7G U8A G9C U10A U11G C12G C13U	1.04

Variant	aptazyme ON/OFF ratio
U7G U8A G9C C12U C13U	1.03
U7G U8A G9C C12U C13A	1.06
U7G U8A G9C C12U C13G	1.06
U7G U8A G9C C12G	1.01
U7G U8A G9C C12U	1.04
U7G U8A G9C C12A	1.02
U7G U8A G9C U10C U11C C12G C13A	1.05
U7G U8A G9C U10C U11C C12G C13G	1.04
U7G U8A G9C U10C U11C C12G C13U	1.03
U7G U8A G9A U10G U11C C12U	1.09
U7G U8A G9A U10G U11C C12A	1.13
U7G U8A G9A U10G U11C C12G	1.17
U7G U8A G9C U10C C12A C13G	1.03
U7G U8A G9C U10C C12A C13A	1.07
U7G U8A G9C U10C C12A C13U	1.01
U7G U8A G9A U11C	1.03
U7G U8A G9A U11A	1.45
U7G U8A G9A U11G	1.26
U7G U8A G9A U10C U11C C12G C13A	1.09
U7G U8A G9A U10C U11C C12G C13G	1.03
U7G U8A G9A U10C U11C C12G C13U	1.08
U7G U8A G9C U10C U11A C12U C13G	1.04
U7G U8A G9C U10C U11A C12U C13A	1.02
